{"source": "patent US20150329626A1", "key": {"human Ang2 (human) [1]": {"target": "human Ang2 (human) (UniProt O15123)", "sequence (O15123 19-496 limits assumed)": "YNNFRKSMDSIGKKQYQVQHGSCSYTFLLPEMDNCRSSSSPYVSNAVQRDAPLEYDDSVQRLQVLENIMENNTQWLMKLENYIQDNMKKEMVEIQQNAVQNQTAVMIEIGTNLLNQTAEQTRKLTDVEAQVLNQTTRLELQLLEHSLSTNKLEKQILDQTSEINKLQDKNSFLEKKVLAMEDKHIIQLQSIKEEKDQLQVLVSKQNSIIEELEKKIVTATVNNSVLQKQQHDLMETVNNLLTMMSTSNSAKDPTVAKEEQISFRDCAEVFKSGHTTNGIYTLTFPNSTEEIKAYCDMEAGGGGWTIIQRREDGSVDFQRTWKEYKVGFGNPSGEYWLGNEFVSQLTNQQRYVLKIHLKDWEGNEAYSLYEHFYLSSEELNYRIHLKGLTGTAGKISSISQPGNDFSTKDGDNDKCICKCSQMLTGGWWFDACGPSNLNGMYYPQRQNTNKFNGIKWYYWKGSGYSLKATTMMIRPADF", "test": "competition ELISA: blocking of biotinylated human Ang2 binding to plate-coated human Tie2-Fc"}, "human Ang2 (human) [2]": {"target": "human Ang2 (human) (UniProt O15123)", "test": "cell-based or functional assay"}, "dog Ang2 (dog)": {"target": "dog Ang2 (dog)", "sequence (A0A8J8 19-495 limits assumed)": "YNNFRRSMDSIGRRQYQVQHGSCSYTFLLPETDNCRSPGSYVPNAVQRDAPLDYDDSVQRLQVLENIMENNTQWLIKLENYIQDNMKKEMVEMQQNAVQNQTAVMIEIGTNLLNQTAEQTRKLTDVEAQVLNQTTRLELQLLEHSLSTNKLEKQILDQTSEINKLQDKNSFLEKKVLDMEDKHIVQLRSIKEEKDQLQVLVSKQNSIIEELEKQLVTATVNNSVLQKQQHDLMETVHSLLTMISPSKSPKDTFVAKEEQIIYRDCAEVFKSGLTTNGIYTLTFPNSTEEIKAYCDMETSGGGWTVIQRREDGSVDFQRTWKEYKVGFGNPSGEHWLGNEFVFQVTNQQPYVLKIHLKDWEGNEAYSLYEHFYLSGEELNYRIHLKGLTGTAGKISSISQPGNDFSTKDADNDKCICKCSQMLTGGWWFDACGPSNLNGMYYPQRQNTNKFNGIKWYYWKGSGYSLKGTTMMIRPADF", "test": "Biacore SPR, 37 C, n = 3, antibody captured on Protein A"}, "human Ang2 (human) [3]": {"target": "human Ang2 (human) (UniProt O15123)", "test": "Biacore SPR, 37 C, n = 3, antibody captured on Protein A"}, "rabbit Ang2 (rabbit)": {"target": "rabbit Ang2 (rabbit) (UniProt G1T9B3)", "sequence (G1T9B3 entry or part of it)": "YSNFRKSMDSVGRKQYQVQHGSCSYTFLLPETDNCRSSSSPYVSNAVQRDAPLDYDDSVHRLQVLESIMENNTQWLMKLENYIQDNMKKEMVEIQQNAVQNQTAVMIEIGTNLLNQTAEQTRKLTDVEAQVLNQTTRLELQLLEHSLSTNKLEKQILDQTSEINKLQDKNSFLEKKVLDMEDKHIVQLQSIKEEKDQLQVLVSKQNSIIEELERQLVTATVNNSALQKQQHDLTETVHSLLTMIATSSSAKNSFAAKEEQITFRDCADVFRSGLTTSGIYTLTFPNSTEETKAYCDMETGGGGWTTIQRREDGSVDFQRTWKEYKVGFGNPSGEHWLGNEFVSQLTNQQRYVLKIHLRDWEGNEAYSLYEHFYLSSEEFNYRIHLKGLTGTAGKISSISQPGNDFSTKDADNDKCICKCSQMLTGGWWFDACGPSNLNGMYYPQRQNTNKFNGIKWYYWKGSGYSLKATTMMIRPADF", "test": "Biacore SPR, 37 C, n = 3, antibody captured on Protein A"}, "[4]": {"target": "cyno Ang2 (cynomolgus monkey)", "test": "Biacore SPR, 37 C, n = 3, antibody captured on Protein A"}, "mouse Ang2 (mouse)": {"target": "mouse Ang2 (mouse) (UniProt O35608)", "sequence (O35608 19-496 limits assumed)": "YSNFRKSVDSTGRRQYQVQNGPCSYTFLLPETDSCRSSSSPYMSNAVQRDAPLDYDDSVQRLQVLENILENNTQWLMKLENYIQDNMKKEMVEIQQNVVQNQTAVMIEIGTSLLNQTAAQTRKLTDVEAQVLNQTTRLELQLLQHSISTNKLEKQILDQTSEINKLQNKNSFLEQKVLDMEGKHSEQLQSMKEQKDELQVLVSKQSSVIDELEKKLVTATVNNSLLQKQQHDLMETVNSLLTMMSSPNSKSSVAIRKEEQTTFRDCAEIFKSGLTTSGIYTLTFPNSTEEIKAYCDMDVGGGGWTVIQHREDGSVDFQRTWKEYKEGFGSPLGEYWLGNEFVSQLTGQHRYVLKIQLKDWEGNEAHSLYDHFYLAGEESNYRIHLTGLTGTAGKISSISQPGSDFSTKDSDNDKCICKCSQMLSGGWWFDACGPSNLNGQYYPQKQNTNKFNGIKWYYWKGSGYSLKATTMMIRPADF", "test": "Biacore SPR, 37 C, n = 3, antibody captured on Protein A"}}}
{"binder": "Ang2 antibody with the same HCDRs and LCDRs as the scFv polypeptide portion of Compound F (antibody, V domains shown, CDRs only; frameworks, constant regions missing) VH: QVQLVQSGAEVKKPGSSVKVSCKASGYSFTDYNMVWVRQAPGQCLEWMGYIDPYNGGTGYNQKFEGRVTITADESTSTAYMELSSLRSEDTAVYYCARTRDRYDVWYFDVWGQGTLVTVSS VL: DIVMTQSPDSLAVSLGERATINCKASQDVYIAVAWYQQKPGQPPKLLIYWASTRDTGVPDRFSGSGSGTDFTLTISSLQAEDVAVYYCHQYSSYPPTFGCGTKVEIK", "values": [{"measurement": "IC50", "setting": "human Ang2 (human) [1]", "result": 0.027, "unit": "nM"}, {"measurement": "inhibition of human Ang2 induced phospho-Tie2 in CHO-Tie2 cells (IC50)", "setting": "human Ang2 (human) [2]", "result": 0.773, "unit": "nM"}, {"measurement": "Kd", "setting": "dog Ang2 (dog)", "result": 0.14, "unit": "nM"}, {"measurement": "koff", "setting": "dog Ang2 (dog)", "result": 0.00011, "unit": "s⁻¹"}, {"measurement": "kon", "setting": "dog Ang2 (dog)", "result": 790000, "unit": "M⁻¹ s⁻¹"}, {"measurement": "Kd", "setting": "human Ang2 (human) [3]", "result": 0.08, "unit": "nM"}, {"measurement": "koff", "setting": "human Ang2 (human) [3]", "result": "7e-05", "unit": "s⁻¹"}, {"measurement": "kon", "setting": "human Ang2 (human) [3]", "result": "1e+06", "unit": "M⁻¹ s⁻¹"}, {"measurement": "Kd", "setting": "rabbit Ang2 (rabbit)", "result": 0.21, "unit": "nM"}, {"measurement": "koff", "setting": "rabbit Ang2 (rabbit)", "result": 0.00015, "unit": "s⁻¹"}, {"measurement": "kon", "setting": "rabbit Ang2 (rabbit)", "result": 730000, "unit": "M⁻¹ s⁻¹"}, {"measurement": "Kd", "setting": "[4]", "result": 0.107, "unit": "nM"}, {"measurement": "koff", "setting": "[4]", "result": 0.00029, "unit": "s⁻¹"}, {"measurement": "kon", "setting": "[4]", "result": "2.7e+06", "unit": "M⁻¹ s⁻¹"}, {"measurement": "Kd", "setting": "mouse Ang2 (mouse)", "result": 0.109, "unit": "nM"}, {"measurement": "koff", "setting": "mouse Ang2 (mouse)", "result": 0.00011, "unit": "s⁻¹"}, {"measurement": "kon", "setting": "mouse Ang2 (mouse)", "result": "1e+06", "unit": "M⁻¹ s⁻¹"}]}
